Data published in US20260193316A1.

How the values were obtained:
Test in all cases: cell-based or functional assay
[1] = target: CD20WT (wild type amino acidic sequence of human CD20) (human) (UniProt P11836)
C1C3 (human) = C1C3 (human) (UniProt P11836)
C1C252 (human) = C1C252 (human) (UniProt P11836)

Measured: reduction in the hCD20+ cell population in mice (GFP+ T cells in blood)

2H7 mouse anti-human CD20 antibody
65%: all assays above
